Assay [1] deals with T1, factor H, Human (Merck Millipore) (human, UniProt P08603 19-1231).
T1 construct: mature; also called full-length factor H protein; full length fH protein
As to the kind of experiment: SPR, full-length human factor H immobilised on CM-5 chip, fHbp analyte at 250 nM. For orientation: SPR reads the build-up and loss of mass on a sensor chip optically.

Assay [2] addresses T2, factor H (hfH) domain 6-7 (human, UniProt P08603 321-443).
T2 construct: domain: factor H 6-7 domain; also called factor H 6-7 domain; factor H domain 6-7
T2 sequence: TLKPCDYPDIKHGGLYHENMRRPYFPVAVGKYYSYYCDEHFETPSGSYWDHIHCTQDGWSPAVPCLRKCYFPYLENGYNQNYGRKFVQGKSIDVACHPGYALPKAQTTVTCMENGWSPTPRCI
As to the kind of experiment: SPR, fH 6-7 immobilised on CM-5 chip, fHbp as analyte.

The target of assay [3] is T1, factor H, Human (Merck Millipore). As to the kind of experiment: SPR, full-length human factor H immobilised on CM-5 chip, fHbp as analyte.

T1 sequence (P08603 19-1231): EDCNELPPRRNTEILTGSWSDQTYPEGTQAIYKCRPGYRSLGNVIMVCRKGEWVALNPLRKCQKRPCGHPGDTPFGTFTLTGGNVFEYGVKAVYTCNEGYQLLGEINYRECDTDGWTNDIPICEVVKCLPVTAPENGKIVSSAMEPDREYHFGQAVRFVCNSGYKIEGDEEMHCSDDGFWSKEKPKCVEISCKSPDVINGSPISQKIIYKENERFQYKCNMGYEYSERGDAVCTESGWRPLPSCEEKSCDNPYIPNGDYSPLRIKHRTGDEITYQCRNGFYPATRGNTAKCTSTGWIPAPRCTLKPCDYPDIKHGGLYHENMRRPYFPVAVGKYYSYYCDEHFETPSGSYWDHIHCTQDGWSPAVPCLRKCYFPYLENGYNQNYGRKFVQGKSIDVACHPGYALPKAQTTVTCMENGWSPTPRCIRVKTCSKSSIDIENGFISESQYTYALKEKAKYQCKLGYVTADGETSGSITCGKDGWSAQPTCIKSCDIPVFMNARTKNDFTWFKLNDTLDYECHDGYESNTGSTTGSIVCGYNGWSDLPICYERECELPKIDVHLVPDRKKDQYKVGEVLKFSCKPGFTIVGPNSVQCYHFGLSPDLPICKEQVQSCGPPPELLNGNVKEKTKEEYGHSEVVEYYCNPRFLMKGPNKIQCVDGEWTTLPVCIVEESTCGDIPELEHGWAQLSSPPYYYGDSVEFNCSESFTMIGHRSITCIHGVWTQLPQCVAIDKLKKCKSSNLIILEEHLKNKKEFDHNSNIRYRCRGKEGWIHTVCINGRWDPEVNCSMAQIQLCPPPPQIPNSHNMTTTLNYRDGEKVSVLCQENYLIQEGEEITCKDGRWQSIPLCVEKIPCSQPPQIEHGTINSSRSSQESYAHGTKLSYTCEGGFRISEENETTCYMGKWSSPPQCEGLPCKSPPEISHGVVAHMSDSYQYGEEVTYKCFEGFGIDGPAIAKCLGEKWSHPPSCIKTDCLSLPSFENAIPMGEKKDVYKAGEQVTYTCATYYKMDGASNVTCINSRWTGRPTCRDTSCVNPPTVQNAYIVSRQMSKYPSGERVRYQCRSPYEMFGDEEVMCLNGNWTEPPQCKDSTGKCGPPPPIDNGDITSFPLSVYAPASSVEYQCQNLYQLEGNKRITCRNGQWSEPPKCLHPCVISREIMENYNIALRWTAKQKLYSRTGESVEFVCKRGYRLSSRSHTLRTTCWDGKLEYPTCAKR

B1: fHbp v1.15 (other)
chain: VAADIGAGLADALTAPLDHKDKGLKSLTLEDSISQNGTLTLSAQGAERTFKAGDKDNSLNTGKLKNDKISRFDFIRQIEVDGQLITLESGEFQVYKQSHSALTALQTEQVQDSEHSGKMVAKRQFRIGDIVGEHTSFGKLPKDVMATYRGTAFGSDDAGGKLTYTIDFAAKQGHGKIEHLKSPELNVDLAAADIKPDEKHHAVISGSVLYNQAEKGSYSLGIFGGQAQEVAGSAEVETANGIRHIGLAAKQLEHHHHHH
Turning to B1, in assay [1], the binding result was “binds”.

B2: fHbp v1.15 E214A (other)
chain: VAADIGAGLADALTAPLDHKDKGLKSLTLEDSISQNGTLTLSAQGAERTFKAGDKDNSLNTGKLKNDKISRFDFIRQIEVDGQLITLESGEFQVYKQSHSALTALQTEQVQDSEHSGKMVAKRQFRIGDIVGEHTSFGKLPKDVMATYRGTAFGSDDAGGKLTYTIDFAAKQGHGKIEHLKSPELNVDLAAADIKPDEKHHAVISGSVLYNQAAKGSYSLGIFGGQAQEVAGSAEVETANGIRHIGLAAKQLEHHHHHH
notes: also called v1.15 ΔG (E214A) + His tag
For the molecule B2, the binding result in assay [1] is recorded as “binds”.

B3: fHbp v1.15 E214A/S219R (other)
chain: VAADIGAGLADALTAPLDHKDKGLKSLTLEDSISQNGTLTLSAQGAERTFKAGDKDNSLNTGKLKNDKISRFDFIRQIEVDGQLITLESGEFQVYKQSHSALTALQTEQVQDSEHSGKMVAKRQFRIGDIVGEHTSFGKLPKDVMATYRGTAFGSDDAGGKLTYTIDFAAKQGHGKIEHLKSPELNVDLAAADIKPDEKHHAVISGSVLYNQAAKGSYRLGIFGGQAQEVAGSAEVETANGIRHIGLAAKQHHHHHH
notes: also called v1.15 ΔG (E214A/S219R)
As for B3, the binding result is reported as “no binding (tested: 250 nM)” in assay [2] and “binds” in assay [1].

B4: fHbp v1.15 E214A/E235A (other)
chain: VAADIGAGLADALTAPLDHKDKGLKSLTLEDSISQNGTLTLSAQGAERTFKAGDKDNSLNTGKLKNDKISRFDFIRQIEVDGQLITLESGEFQVYKQSHSALTALQTEQVQDSEHSGKMVAKRQFRIGDIVGEHTSFGKLPKDVMATYRGTAFGSDDAGGKLTYTIDFAAKQGHGKIEHLKSPELNVDLAAADIKPDEKHHAVISGSVLYNQAAKGSYSLGIFGGQAQEVAGSAAVETANGIRHIGLAAKQHHHHHH
notes: also called v1.15 ΔG (E214A/E235A)
Regarding B4, the binding result in assay [3] and in assay [2] was “no binding (tested: 250 nM)” throughout.

For the origin of these results see patent publication US20240132550A1 (GlaxoSmithKline, published 2024).
